Laboratory results published in paper PMC10388305, “Synthesis and Evaluation of a Monomethyl Auristatin E—Integrin αvβ6 Binding Peptide–Drug Conjugate for Tumor Targeted Drug Delivery” (Journal of Medicinal Chemistry, 2023).
Ends that are not written are not given here.

What was measured:
[1] = system: MDA-MB-435 breast cancer xenograft tumor model; conditions: copper-64 labeled; 4 h; cited from earlier work
Description: (§1) Wang et al. described a similar radiolabeling approach with copper-64 to imag ...

[2] = system: glioblastoma U87MG xenograft mouse model; conditions: cited from earlier work
Description: as §1

BxPC-3 cells = assay: In vitro cell blocking assay, BxPC-3; assay type: cell-based; conditions: 1 h, 37 °C, n = 3
Method: Cell binding and internalization assay. Binding and internalization were determined as previously described. In brief, bovine serum albumin (BSA, 0.5% w/v in PBS) was used to pretreat the assay tubes to prevent non-specific binding. Aliquots of [64Cu]2 or [ 64Cu]PDC-1 (≤1 μL, 7.4-18.5 KBq in 50 μL PBS, pH = 7.4) were added to a cell suspension (3.75 × 10 6 cells in 50 μL serum free medium), incubated for 1 h at 37 °C, and gently agitated every 5 minutes (n = 3/cell line/compound). The cells were pelleted by centrifugation at 200×g for 3 min and the supernatant collected. The cell pellet was washed with 0.5 mL serum free medium and the wash medium combined with the original supernatant. […] The fraction of bound radioactivity was determined with a γ-counter (by measuring cell pellet and combined supernatants). To determine the fraction of internalized radioactivity, the cells were re-pelleted, and re-suspended in acidic wash buffer (0.2 M sodium acetate, 0.5 M sodium chloride, pH = 2.5, 300 μL, 4 °C, 5 min) to release surface bound activity, followed by a wash with PBS (300 μL). The internalized fraction was determined with a γ-counter (cell pellet vs. radioactivity released into supernatant). A Wizard 1470 or Wizard 2 2470 automatic γ-counter (Perkin-Elmer, Waltham, MA) was used to measure radioactivity samples. […]
Figure S3. […] Data are expressed as mean ± SD. […]

Compound	Tumor accumulation [1] [% ID/g]	Liver accumulation ([2]; 20 h, model not stated) [% ID/g]	Tumor uptake ([2]; copper-64 labeled, 4 h) [% ID/g]	Concentration of non-radioactive DOTA-PDC-1 required to block [64Cu]PDC-1 binding (BxPC-3 cells) [nM]
CDCRGDCFC (also: bicyclic or more (positions not given here)) [TNF-PDC]	3.94 ± 0.48	16.22 ± 1.46	8.11 ± 0.88	–
CC[C@H](C)[C@@H]([C@@H](CC(=O)N1CCC[C@H]1[C@H](OC)[C@@H](C)C(=O)N[C@H](C)[C@@H](O)c1ccccc1)OC)N(C)C(=O)[C@@H](NC(=O)[C@H](C(C)C)N(C)C(=O)OCc1ccc(NC(=O)[C@H](CCCNC(N)=O)NC(=O)[C@@H](NC(=O)CCOCCOCCNC(=O)CCN2C(=O)CC(SC[C@H](NC(=O)CN3CCN(CC(=O)O)CCN(CC(=O)O)CCN(CC(=O)O)CC3)C(=O)NCCOCCOCCOCCOCCOCCOCCOCCOCCOCCOCCOCCOCCOCCOCCOCCOCCOCCOCCOCCOCCOCCOCCOCCOCCOCCOCCOCCOCCC(=O)N[C@@H](CC(N)=O)C(=O)N[C@@H](C)C(=O)N[C@H](C(=O)N3CCC[C@H]3C(=O)N[C@@H](CC(N)=O)C(=O)N[C@@H](CC(C)C)C(=O)N[C@@H](CCCNC(=N)N)C(=O)NCC(=O)N[C@@H](CC(=O)O)C(=O)N[C@@H](CC(C)C)C(=O)N[C@@H](CCC(N)=O)C(=O)N[C@H](C(=O)N[C@@H](CC(C)C)C(=O)N[C@@H](C)C(=O)N[C@@H](CCC(N)=O)C(=O)N[C@@H](CCCNC(=N)N)C(=O)N[C@H](C(=O)N[C@@H](C)C(=O)N[C@@H](CCCNC(=N)N)C(=O)N[C@H](C(=O)NCCOCCOCCOCCOCCOCCOCCOCCOCCOCCOCCOCCOCCOCCOCCOCCOCCOCCOCCOCCOCCOCCOCCOCCOCCOCCOCCOCCOCCC(N)=O)[C@@H](C)O)C(C)C)C(C)C)C(C)C)C2=O)C(C)C)cc1)C(C)C (stereo partly shown) [DOTA-PDC-1]	–	–	–	80 to 160
